The values below come from a protein production outcome set (Wang et al. 2014).

This data set can be described thus: label from the status in PepcDB records.
Take “MKKKLKLTSLLGLSLLIMTACATNGVTSDITAESADFWSKLVYFFAEIIRFLSFDISIGVGIILFTVLIRTVLLPVFQVQMVASRKMQEAQPRIKALREQYPGRDMESRTKLEQEMRKVFKEMGVRQSDSLWPILIQMPVILALFQALSRVDFLKTGHFLWINLGSVDTTLVLPILAAVFTFLSTWLSNKALSERNGATTAMMYGIPVLIFIFAVYAPGGVALYWTVSNAYQVLQTYFLNNPFKIIAEREAVVQAQKDLENRKRKAKKKAQKTK”: the protein production entry is reported as “failed”. Then “MKKKMITTIIAMLVIVVMLLPTKLGPVIDKYNPFYKTKEYYTVVNTIGQHVGDEWYEYEFIAFDERGKEQKIKKTVKHMLKRDEMLKVYAKGRYGESIEEIEAVNIPINAKSKLLSMRLEHHHHHH”, with “not failed”. Then “MKKKNNNKLHYLDSKGKLYTSGLRSDTKEKYGEIPSSNKNHNLIEKYNELQSLLSKEEEKYDFVKNELGDLQKQKDLLKWHLCNNIKKLSMKRSDYKFKTETKSKLESKLKSLKDMNKIHKFEHDTLEELVHKMEQELETKMYIKNDIENIFNECINKKDEYLKDITQERISVFKERKKRQNQLQKLLLIMKQENNKNYNINYLKKYESNLMNEINSYKNYKDFETKIAMDLIDDHSLNDLYVT”, with “failed”. The value for “MKKLAISIGDINSIGLEILVRSHEELSKICTPFYFIHESLLNKALKLLNLKLFNAKIVAFKDDKDYEFNFIKKENSLEIYSFCLPLGFKVDENFEIQAGEIDAKSGLYGFLSFKAASYFVYEKHAHALLTLPIHKKAWEDAGLKYKGHTDALRDFFKKNAIMMLGCKELFVGLFSEHIPLAKVSKKITFKNLSIFLKDFYKETHFKKMGLLGFNPHAGDYGVIGGEEEKIMEKAIAFVNAFLHSKKDEKFFKKALKDENLQKELLLNFKGKGVYLPYPLVADTAFTKTGLKNCNRLVAMYHDLALAPLKALYFDKSINVSLNLPIIRVSVDHGTAFDKAYKNAKINTKSYFEAAKFAINLHSKA” was “not failed”; that for “MKKLGFVLFMSMFAFVSVVPAAEAKVIDHDKVQGFSEVTPVTVSQKAAKRFQPYLKVASGCVPFPAVDAQGNTSGGLEPTGAPEGHCSKSVGQVYSRSAWYNGVWAIMYAWYFPKDSPLPLKAFGHRHDWEGIVVWIDNPANQNPKVLSIAYSQHGKFQKTAPNNNIMEGDHPKIRYDAPQPPINHSLYVDSAKGGTQPLIGWEDLTPAARNALNTTDFGSANVPFNDHNFTNNLGKAWFR” was “failed”; that for “MKKLILYTLILLLMSCRSTQEVDTSVYMDAKQPVDKRVEALLAQMTLEEKVGQMDMVTVWDKEAIFKNGYYDFGAWLADLEPEECNQLQKLSEQTRLKIPYLIGMDAAHGYAMLTGRTIFPTSISMAATFNRELIYRTTSKAGEEIRSSGIHWAFAPCIDIVQDARWGRTGETYGEDPFLTSELVKEAIRGYQGNENPFKKVAVSVKHLVGGGASVGGCNHASAELSERALRSYFLPPFKAAIEAGCMTIMPGHNDIAGVPVHASKWLLTDIIKQEYGFKGFFISDMGDVENLATSLHQIAENQKEAVCKSVNAGLDMHMYSADSARFVSPLVELVREKKVSSRRIDDAVRRILKIKFELGLFEKRYVSPEEDSYGSKENKALALEAAREAIVLLKNDRQILPLDRTKYKKILVTGPNADNQSILGDWSIFQPDDHVTTILEGIQAAASPEQSILYSNSGRIKAKKSDLSVNTTDPAIQKKLITEGGGISDYSIDDAVRKARQSDLAIVAIGGYGIRSEWGLRTYGESADRPSIDFYGRQLELVQAIHATGTPVVIVIVNGKPLNNEWITKNIPTIVDVWEPGMYGGQALAEILFGEVNPSGKLPITIPKHAGQIPMYYYQRPSRYWTGYGLGSSREDEKPAFCFGHGLSYTSYEYSGLKIDSVIPQTQDIEFTFTVKNTGNMAGKETALVFIRDCVSSVVTPVACLKGFEKVSLNPGESKDIRIVIPYSDLGLWNEDMKYVVESGKFNLMIGRSVEDIRIKKDFFIK” was “failed”.

With “MKKLINRVDDVLSEQLQGFAKAHPEINLHPSSFYVTRHDAPVKGKVALLSGGGSGHEPMHAGFVGKGMLDGACPGEIFTSPTPDKMYDCAKAIDSGEGVLMIVKNYTGDVLNFETATELLHDEGVKIATVLVDDDVAVKDSLYTAGRRGVANTVLMEKLLGAAAERGDTLDDLVKLGHQINNNGFSIGIALQACTVPAAGKPSFTLPENEMEFGVGIHGEPGIDRRPFTSLNDTVDAMFNTLIENGHYQRTIRSWDRVNGDWIEETQEKQPLKSGDRVIALVNNLGATPLSELYGVYHRLALCCENFGLNIERSLIGSYCTSLDMSGISITLLKVDDALLTLWDAPVATPAMTK”, the protein production entry is “failed”.

Take “MKKLLLSLTLTVLLGLLGRPAIAANYEIKLVDEGVFAAIALPEGKAASNALIIITPHQVILAGAHFVPEGIKELIADIAEITPLPLRSVILTHHHKGFNYVDFDFPANVEIITSWQTWQALKAETRPLRNPVTFFEKGLTLLRSNTTIVLSSADFGHTEGDVFLFLPNEGILFASDLFYNDVVGYMGEGHMRDWVITLETLEAVGAQYVVPGLGQVTDRSGLRRFRLFFKDFLTEVLRHMEAGKTLAETKKLFRLPAHEGMPGYKAFLDVNLDRAYQDLRDQ”: the protein production entry was “failed”. The value for “MKKNIRLLTHNEIPRVWEIDRTELIERLYVLQQGQLVLSEQRFDMKGWPEGEAEHYTPVLLESAERGAPFWGVFEDDKLVAATSVDPQWRGQDNTLLQLSFLHISHQQRGQGLARILFDYCVEYAKQKGASGLYISSTPSENSVNFYQHMGCRLIDVPDTELYEREPEDIHLVLNFNKED” was “failed”; that for “MKKNIVVLVLIVLIIFSAGSGCISSDVISSANTSSDEADGNTGENSALGKSADSEPDQANITPYGKSSPYLYWEYELGDVTPENTLGGRSSVQDCVSFAPDGKSVATGTGSNLTVVSVSEKNVLWTKILSGNISDLTFSEDGKYLLVGEKSADGCIYSLDANTGEEIRTYRTSDDLGTDSNPKYQPCIYKITAAEDSVYVAAGRYWKDSKYGLASRVYGFSPDGTFSWKLPATENYARSVNWIDASQDGKNVVYSIGDWTNSLESDAVVYSVDAGGKLRWKYEIPALRPYFVSAAIWHGLDVSEDGSLVTAYTGDGRTYLFYDAEMKDPGDGKSEWYSEEYQSNVTTPEELEGSAIYTYGENAKIAADNEILYLTGATLPAYYPDNIPMAHPLENSLISCDAEKGETSWTYNLGGRCAGIFFSQDMRYFVLPVGKDTSTGDTRVHGVYVFDSRKSGNGNSKLLWTFRTEGVVENAAISSNCTVAAVEVPLQLENGDVTGKHRLIIVR” was “failed”. The value for “MKKNKIGGSQSMFNKVWFRTGIFFIMLFILIKLFMEVHEVFAPIATIIGSVFLPFLISGFLFYICLPFQNILEKWGFPRWASITTIFIGLIVIIAIVVSFIAPIIISNINNLIKQTPSLQKEAEQLINFSLRQMDKLPDDVTHRINKAVKSMGDGATSILSNSVSYITSFISTVFLLIMVPFFLIYMLKDHEKFIPAIGKFFKGERKVFVVDLLKDLNFTLKSYIQGQVTVSIILGIILYIGYTIIGLPYTPLLVLFAGVANLIPFLGPWLSFAPAAILGIIDGPSTFIWVCVVTLIAQQLEGNVITPNVMGKSLSIHPLTIIVVILAAGDLGGFTLILVAVPLYAVIKTLVSNIFKYRQRIVDKANSNVKD” was “failed”; that for “MKKNKLTTLALILPITILTPIVIASCTNKTKVKKSSSLDKIASNLKLEYFNNKANTKASSVQKDEIKKPLNLPNDVVFSVKDVFVSHKDQSVLIVKYTLKKGNEIQEYTYEIKGFKSVYEKDKIVNDLSQANEDFKKIVNNIRLKDTFDFKLAAFPNQNYDQLLPSQIYKNYYQGIEIQQHKYQNELDIKIINFLYPDGDFGSANKNGTLKLSLMLTDKKNNQVYYKLLEVSGFKSNPYGVDENGTIPGIGTERLKPKNQDDYFSKTQLQRYEIDNEGYLQILKRQNNDKNWKELRPDLNATVSDIKHFDEKAKNVGQDSYESAAYKGFTLPVYESDGKISGLALAGKDTPKGPSWVDAIGRNQWQIGGLPRTLPNEKYRQEAMQTFSLGILNNDSHKNNTYNKTAGTTWILDYQKTSDNKYPTKWYFATNLHVADAINENTLSINLMRLMDSAQIKTTFRLSNLDENIYNFGFRSKEHGKNLLNHGLKKIFDGRDFLKTKPAEYLINSQKEKYKDVGNFTDFAVFELDFEKLELVNVWKNFLGENNGLVTKYNNYNPQELAKVITSNYANNKNNQIKFLSKSYLSDYSKIDVPLKYRQEDAKTWFKKYDELFALGWPNSTEDFFFKAYVDDDQLKYRTRDNFSLWTNSDYRFFNNLTQQEGGQPAFPPERTERGNYLSYAIGFRSFIQKPGIVDAFIAVPQIGNNLYTSSDNKKYINMGLEYLPKHFAPAGGASGTSVRNQKNELVAIYHAKYDSSKTGLAAAFRSEGYDYQGLYGNYNLPQYDLIYGGGKDQTEKKSYREAMKDIYQNNNIKTALFPDGFDKIPDEFKFNNN” was “failed”; that for “MKKNLFYLFALICSMSLFTACSDDDEAPGNSGVVGEVVGDYKGLMDVYYEPNVEIAKGMQQKITIKKSSDTSIGLELKNFVITVGGAPITIGDLAIDNCPLKVEGDKYSFTGNADLDLVVGKCAVSVEGAINGEDIELIIKVNVNNDLMKVRVEYKGKKMTGNESSEALIKEFKFDSDIIAEQPVINEDKTITFKVAETATDDDLKALKPIITISENATVTPESGVTQDFSGNKVVIYKVTSEDGTTVTEYKVSARKSSDALITSFVFENNPIVAEQPVINEDNTITFKVKASATADDLKALVPTITYSHKATIAPESGVAQDFSDNKKVIYTVTSEDGTVIKEYQVFISGTEDVYDFEKWLPGVEGQEPENTFYEAEGWASSNTGAHFLKGFNLTDSYVIMQTDDSHSGTAAAKIQSIDTKGQDLGIAKAPKVTTGSLFLGKFKTDIFNTLNSTKFGIPCKEKPISLRGWYKYTPGDVYYIVNTKPYKEHCHEAVVDETKVDEFMISVVLYETTAYDEIGWSDCLTGTDEEEKNIYTSSRIAAIGQLIGGAQTDWKKFELPLEWKKQYDTNKKYRMTIACSSSKDGDKFWGAPGSTLIVDDFELIKE” was “failed”. Then “MKKPFFGFMFIALFSASLFCNPADLYQKGAEYQANEDWYGAIEMYQSALKENPSYNLVYQGLAECFYALDEYDQALSFVESARKYKKDDPDLQNLHGFILVGLGKIDAAKTLFNGVLKKYPNNPEARFGLAEIEVSQGKLYLASEMYKQNLQRQGENRKDLLSLALVSYEAGNVKQAEDYINRALKYHGDNPQVHYFAAYLHSLDGKLEEAEGRIYSALKLKEDYDEAYALLASVLYAQKRYEEVIKISDMRISKKRDRADAWYLKTLSLRQLARYGEAINAAKVGLSLDADDEIMRCLLEELAIENLNFEDSFRMELSKYHAQKALGFFRRNMTEQALYEYRRTLKIYPYDVESREAYAGILLRLGYPERYLEQMLFIQSIVKSNTKVNDAVEAYEKHLLSSIQSKWRIDPLYLDKAHISIGLFYTMESSNVLHPEAERITQILTSDIFSYNPRIKITSYSDKPVTYREASKKSRTANEDYFGIIRLKENRRDIQIILELYVSRTGSPAKTFTVYRSGNDRFSNGIRRLSSMLNEAMPIVGKLINRYQNEAVIDIGKHDSDFKDLKIAVIRKDRLVIEKEGLGMVFDPSDLLGYFEPSKSEENLSEGILKRNGYYDRMNAGDSIILVSENAKEKAAEDYTNSYQKNSLLLLLLRRIR”, with “failed”; and “MKKQLIKSSTFRTLEVIIITVISLVLTPYLIHHLGDAHYGLWILILSALGWFNFIDLGFAYAVQRNIVLALENKDNHRINIVFSVAVALFSVLGFIAAFCVLVLAFFPELLGINEKEQSIATIAFSILAIKVFLDFIMNCFHGFFTAYLRMDIDANLGTLNMVVKSILVFYLIIDMNIYGAVFATIAADILTHSLKMHFARKLHPEFKFVLHLVKFSEVRQLFAFSKHLILMGMAKSVNRRVDPIIISHLLGLKFVAIYNVINSLMNQVESLVGAIVGVFQPVLTKMVARNTGLDGTFKLIISINFFTVILLYMPLAILAEDFITLWIGLDYAQAGQLAPILGFAYICRTVSRPISSLLLAKAQHQLLSVVNLLGALLNIGLSLVLGSQWGLLGIAIATACSFFVSDVILHLVLLNKYTELPVLKPILEFIKLVVLYILLVVLGISMMQLFEPLNWGQLIIAAIACVCIALLIAWPMLLDKEVKQKLLGMLIKTGKAHD”, with “failed”.
